# Patent US20170233495A1 (CALYPSO BIOTECH, published 2017)
# B1: comparative antibody 1 (antibody known as AB0041) (antibody, human IgG4 S228P, kappa, V domains shown)
# VH: QVQLKESGPGLVAPSQSLSITCTVSGFSLLSYGVHWVRQPPGKGLEWLGVIWTGGTTNYNSALMSRLSISKDDSKSQVFLKMNSLQTDDTAIYYCARYYYGMDYWGQGTSVTVSS
# VL: DIVMTQSHKFMSTSVGDRVSITCKASQDVRNTVAWYQQKTGQSPKLLIYSSSYRNTGVPDRFTGSGSGTDFTFTISSVQAEDLAVYFCQQHYITPYTFGGGTKLEIKR
# notes: also called anti-MMP9 comparative antibody 1
# Tests used:
# [1] = molecular target: neutrophil-derived human dimeric MMP9 (human, UniProt P14780 20-707); test: cell-based or functional assay
# Chain of neutrophil-derived human dimeric MMP9 (P14780 20-707): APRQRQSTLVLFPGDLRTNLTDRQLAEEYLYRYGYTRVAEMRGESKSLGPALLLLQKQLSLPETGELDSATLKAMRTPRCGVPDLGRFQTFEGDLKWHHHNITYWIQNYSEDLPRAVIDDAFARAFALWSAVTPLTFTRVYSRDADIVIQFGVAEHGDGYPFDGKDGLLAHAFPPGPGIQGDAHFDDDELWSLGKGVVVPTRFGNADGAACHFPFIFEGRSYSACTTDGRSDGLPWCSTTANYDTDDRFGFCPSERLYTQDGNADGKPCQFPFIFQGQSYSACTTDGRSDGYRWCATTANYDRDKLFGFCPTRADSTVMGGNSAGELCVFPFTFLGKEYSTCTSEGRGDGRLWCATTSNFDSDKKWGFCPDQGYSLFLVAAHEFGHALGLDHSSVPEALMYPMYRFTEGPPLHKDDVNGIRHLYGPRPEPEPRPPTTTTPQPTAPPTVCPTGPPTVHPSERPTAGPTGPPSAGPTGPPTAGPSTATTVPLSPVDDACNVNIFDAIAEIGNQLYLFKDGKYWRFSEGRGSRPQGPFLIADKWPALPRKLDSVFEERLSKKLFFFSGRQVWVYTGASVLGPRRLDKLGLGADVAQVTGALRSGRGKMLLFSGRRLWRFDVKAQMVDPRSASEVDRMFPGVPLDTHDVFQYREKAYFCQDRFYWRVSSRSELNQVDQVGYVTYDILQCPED
# [2] = molecular target: T1, recombinant human proMMP9 (full length, latent form) (human, UniProt P14780 20-707); test: cell-based or functional assay
# T1 sequence (P14780 20-707): as above
# [3] = molecular target: T2, neutrophil-derived human monomeric MMP9 (human, UniProt P14780 20-707); test: cell-based or functional assay
# T2 sequence (P14780 20-707): as above
# [4] = molecular target: T3, neutrophil-derived human NGAL/MMP9 complex (human, UniProt P80188 21-198); test: cell-based or functional assay
# T3 sequence (chain, as listed by the source limits assumed, chain 1 of 2): as the sequence (P14780 20-707) above
# T3 sequence (P80188 21-198 limits assumed, chain 2 of 2): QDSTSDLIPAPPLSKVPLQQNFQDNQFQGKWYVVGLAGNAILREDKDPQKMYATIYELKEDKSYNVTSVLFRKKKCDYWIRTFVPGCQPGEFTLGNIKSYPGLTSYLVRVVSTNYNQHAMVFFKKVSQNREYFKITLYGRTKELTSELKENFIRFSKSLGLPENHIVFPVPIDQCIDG
# [5] = molecular target: T1, recombinant human proMMP9 (full length, …); test: SPR (BIAcore), antibody captured by anti-human Fc, antigen titrated 4.7-150 nM
# Protocol: (§1) In a second step, pro-MMP9 or MMP3-activated MMP9 were titrated from 4.7 to 150 nM in 2-fold dilutions.
# [6] = molecular target: MMP3-activated recombinant human MMP9 (human, UniProt P14780 107-707); test: as above
# Chain of MMP3-activated recombinant human MMP9 (P14780 107-707): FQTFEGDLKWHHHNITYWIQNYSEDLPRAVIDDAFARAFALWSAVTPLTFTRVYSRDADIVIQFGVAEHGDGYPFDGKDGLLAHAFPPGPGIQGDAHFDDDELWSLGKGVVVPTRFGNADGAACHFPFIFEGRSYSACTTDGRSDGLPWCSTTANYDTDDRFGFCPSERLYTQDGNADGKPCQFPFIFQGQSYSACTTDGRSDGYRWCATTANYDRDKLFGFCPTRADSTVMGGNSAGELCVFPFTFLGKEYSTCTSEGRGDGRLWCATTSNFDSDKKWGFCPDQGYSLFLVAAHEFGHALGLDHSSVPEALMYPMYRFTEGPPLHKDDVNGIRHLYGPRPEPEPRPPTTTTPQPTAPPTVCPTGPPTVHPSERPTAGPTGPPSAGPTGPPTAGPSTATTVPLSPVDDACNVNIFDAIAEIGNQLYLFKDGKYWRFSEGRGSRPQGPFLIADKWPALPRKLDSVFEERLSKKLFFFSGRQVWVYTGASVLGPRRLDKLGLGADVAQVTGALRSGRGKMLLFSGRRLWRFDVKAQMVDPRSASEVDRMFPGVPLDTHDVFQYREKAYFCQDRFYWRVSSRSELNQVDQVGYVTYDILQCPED
# Protocol: as §1
# [7] = molecular target: T2, neutrophil-derived human monomeric MMP9; test: cell-based or functional assay; remark: listed apart in the source
# [8] = molecular target: T3, neutrophil-derived human NGAL/MMP9 …; test: cell-based or functional assay; remark: listed apart in the source
binder,measurement,setting,value
B1,"efficacy of inhibition, MMP3/MMP9 assay with neutrophil-derived MMP9",[1],25%
same,"IC50, DQ-gelatin digestion, MMP3/MMP9 assay",[2],0.2 nM
same,"efficacy of inhibition, MMP3/MMP9 assay with neutrophil-derived MMP9",[3],25%
same,"efficacy of inhibition, MMP3/MMP9 assay with neutrophil-derived MMP9",[4],25%
same,Kd,[5],0.9 nM
same,Kd,[6],5 nM
same,IC50 (read off the curve),[7],~1 nM
same,IC50 (read off the curve),[8],~1 nM
